Here are results for 6 molecules from publication doi:10.1101/340026.

In assay [1] the target is soluble porcine αβ-tubulin (porcine) (UniProt P02550). In words: SEC + SEC-MALS. On the technique in general: In gel filtration, larger molecules generally elute earlier.
The target is the same in assay [2]. In words: ITC. A general note: ITC needs no label: the signal is the heat of the interaction.
Assay [3] deals with αβ-tubulin:DRP complex (1:1 molar ratio) (porcine) (UniProt P02550). In words: ITC.
Assay [4] has the same target. In words: ITC. The source holds these as a separate data set.
For assay [5], the target named is soluble porcine αβ-tubulin (porcine) (UniProt P02550). The experiment in a line: SEC + SEC-MALS. This is another data set of the same source.

A word on the stoichiometry N: it is a count of units in the complex or per binding partner. By Kd is commonly meant the equilibrium constant for the complex coming apart.

Where two headings read alike, the source gives them in different places.

Consider “designer ankyrin repeat protein, Darpin-D1 (DRP) (designed binder)”, for which the stoichiometry N in assay [1] came out at 1. This molecule also had a Kd in assay [2] of 149 nM.

The molecule “DRP with the N-terminal ankyrin repeat removed (DRPΔN) (designed binder)” registered a Kd in assay [2] of 461 nM.

B1: isolated TOG2 (residues 320-510) (domain or fragment)
chain: KDNDFFNLVAILTKSVSKDANIMVVINAAHCIQAMAKGLRSNFSKYASTSINALLERSKEKKANVIESLSSAMDAVLATSSLDDLAELIASFAGNKNPQIKSSCFSLFSRSFSNMTSLPSKFTVDTCAKACVPGVSDTFEPVRSAAAEALGVLMKLVGERAINQYLSPLDDIRKSKIRSFYETATVKAKAP
In the case of B1, the Kd in assay [3] is 173 nM; in assay [4], 3250 nM.

B2: isolated TOG1 (residues 1-270) (domain or fragment)
chain: MSQDQEEDYSKLPLESRIVHKVWKVRLSAYEECSKSFSLSADGSDNCFELWNNQSELWKSVLTDSNVAAQEAGTAAFVAYCRFSDPSHLLKAREISVLSISEKCLTSPRAGTRENALEALMLLVEADSAAPVIESIIPSLSARSPKVIASNVAAIASLVEQFGAKVIPSKMIIPHISNLFGHADKNVRKEASRLTVNIYRWTGDPLKDLLFKDLRPVQTKELESLFAELPTEPPKQTRFLKSQQPTSEPNVETQVEEQPALENEESEPEP
As to B2, the Kd in assay [3] is 70 nM; in assay [4], 1500 nM.

B3: dimeric S. pombe Alp14 TOG array (residues 1-690) (domain or fragment)
chain: MSQDQEEDYSKLPLESRIVHKVWKVRLSAYEECSKSFSLSADGSDNCFELWNNQSELWKSVLTDSNVAAQEAGTAAFVAYCRFSDPSHLLKAREISVLSISEKCLTSPRAGTRENALEALMLLVEADSAAPVIESIIPSLSARSPKVIASNVAAIASLVEQFGAKVIPSKMIIPHISNLFGHADKNVRKEASRLTVNIYRWTGDPLKDLLFKDLRPVQTKELESLFAELPTEPPKQTRFLKSQQPTSEPNVETQVEEQPALENEESEPEPSDDQFDLVEEVDVLPNVDPNLETLMASSKWKDRKEALDKLLPVLSQPKIKDNDFFNLVAILTKSVSKDANIMVVINAAHCIQAMAKGLRSNFSKYASTSINALLERSKEKKANVIESLSSAMDAVLATSSLDDLAELIASFAGNKNPQIKSSCFSLFSRSFSNMTSLPSKFTVDTCAKACVPGVSDTFEPVRSAAAEALGVLMKLVGERAINQYLSPLDDIRKSKIRSFYETATVKAKAPTKKSKVKPSKQEESKVVVPSNAKAVKKSVVPSSPVVPSPRKATNKSLSMDVSKGNAFENGPLLPRPTTRPVSRGLSRGTSSSLQQKVKASTPLNSGALNETVQNLKNMELDDPAPQPAKHSRVDRYEHPKVLEDNDSTISSLESLKRENEELREQLKVEHEENISMQKQLSELKGELNTL
As for B3, the stoichiometry N in assay [1] and in assay [5] was 4 each time.

B4: monomeric S. pombe Alp14 TOG1-TOG2 array (residues 1-510) (domain or fragment)
chain: MSQDQEEDYSKLPLESRIVHKVWKVRLSAYEECSKSFSLSADGSDNCFELWNNQSELWKSVLTDSNVAAQEAGTAAFVAYCRFSDPSHLLKAREISVLSISEKCLTSPRAGTRENALEALMLLVEADSAAPVIESIIPSLSARSPKVIASNVAAIASLVEQFGAKVIPSKMIIPHISNLFGHADKNVRKEASRLTVNIYRWTGDPLKDLLFKDLRPVQTKELESLFAELPTEPPKQTRFLKSQQPTSEPNVETQVEEQPALENEESEPEPSDDQFDLVEEVDVLPNVDPNLETLMASSKWKDRKEALDKLLPVLSQPKIKDNDFFNLVAILTKSVSKDANIMVVINAAHCIQAMAKGLRSNFSKYASTSINALLERSKEKKANVIESLSSAMDAVLATSSLDDLAELIASFAGNKNPQIKSSCFSLFSRSFSNMTSLPSKFTVDTCAKACVPGVSDTFEPVRSAAAEALGVLMKLVGERAINQYLSPLDDIRKSKIRSFYETATVKAKAP
On to B4, for which the stoichiometry N in assay [1] and in assay [5] was 2 each time.
